# Measurements taken from PMC6751169.
# T1: MenDRA2 (MenD-RIAD-RIAD with two sequential RIAD peptide tags) (E. coli)
# T1 sequence (P17109 whole entry, looked up): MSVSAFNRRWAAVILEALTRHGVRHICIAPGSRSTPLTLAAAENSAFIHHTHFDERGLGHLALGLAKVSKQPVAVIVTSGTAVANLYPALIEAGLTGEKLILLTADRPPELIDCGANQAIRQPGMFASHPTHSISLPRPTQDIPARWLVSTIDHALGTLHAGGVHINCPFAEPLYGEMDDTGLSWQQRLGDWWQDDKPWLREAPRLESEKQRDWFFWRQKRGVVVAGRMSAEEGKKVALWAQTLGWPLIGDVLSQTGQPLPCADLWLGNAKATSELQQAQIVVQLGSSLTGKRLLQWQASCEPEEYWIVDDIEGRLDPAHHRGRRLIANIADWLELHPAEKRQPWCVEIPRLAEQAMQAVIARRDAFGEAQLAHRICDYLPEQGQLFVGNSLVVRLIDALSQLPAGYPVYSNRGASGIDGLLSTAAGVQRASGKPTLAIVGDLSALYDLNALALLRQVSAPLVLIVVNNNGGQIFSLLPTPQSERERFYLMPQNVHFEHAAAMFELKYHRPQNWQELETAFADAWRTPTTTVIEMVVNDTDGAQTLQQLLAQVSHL
# T2: MenDRA (MenD-RIAD with one RIAD peptide tag) (E. coli)
# T2 sequence (P17109 whole entry, looked up): T1 sequence (P17109 whole entry, looked up)
# B1: MenHRD (MenH-RIDD with one RIDD peptide tag), P10644 1-44 (enzyme)
# chain: MILHAQAKHGKPGLPWLVFLHGFSGDCHEWQEVGEAFADYSRLYVDLPGHGGSAAISVDGFDDVTDLLRKTLVSYNILDFWLVGYSLGGRVAMMAACQGLAGLCGVIVEGGHPGLQNAEQRAERQRSDRQWVQRFLTEPLTAVFADWYQQPVFASLNDDQRRELVALRSNNNGATLAAMLEATSLAVQPDLRANLSARTFAFYYLCGERDSKFRALAAELAADCHVIPRAGHNAHRENPAGVIASLAQILRFGGGGSGGGGSGGGGSSLRECELYVQKHNIQALLKDSIVQLCTARPERPMAFLREYFEKLEKEEAK
# modifications: not checked
# What was measured:
# [1] = target: T1, MenDRA2 (MenD-RIAD-RIAD with two …); experiment: SEC; 1.5 mg of enzyme fused with RIAD mixed with two-fold molar excess of enzyme fused with RIDD in Tris buffer pH 7.8, 1 mM EDTA, 0.02% Tween-20, no incubation; Superdex 200 10/300 GL, 0.4 mL/min, Tris pH 7.8, 50 mM NaCl; masses from a calibration curve
# [2] = target: T2, MenDRA (MenD-RIAD with one RIAD peptide …); experiment: as above
binder,measurement,setting,value
B1,stoichiometry N (MenH per 4 MenD (per particle)),[1],16
same,stoichiometry N (MenH per 4 MenD (per particle)),[2],8
